Reference: paper PMC9482650, “Quantitative fragmentomics allow affinity mapping of interactomes” (Nature Communications, 2022)

T1: DFNB31_2, Q9P202
T1 sequence (Q9P202 274-371, limits assumed, looked up): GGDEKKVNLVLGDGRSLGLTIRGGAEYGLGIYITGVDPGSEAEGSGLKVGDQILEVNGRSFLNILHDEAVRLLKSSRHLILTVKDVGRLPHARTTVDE

T2: APBA1_1, Q02410
T2 sequence (Q02410 651-752, limits assumed, looked up): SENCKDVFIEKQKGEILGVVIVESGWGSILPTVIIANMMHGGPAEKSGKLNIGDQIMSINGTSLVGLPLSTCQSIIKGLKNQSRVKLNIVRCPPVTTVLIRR

T3: RADIL, Q96JH8
T3 sequence (Q96JH8 971-1071, limits assumed, looked up): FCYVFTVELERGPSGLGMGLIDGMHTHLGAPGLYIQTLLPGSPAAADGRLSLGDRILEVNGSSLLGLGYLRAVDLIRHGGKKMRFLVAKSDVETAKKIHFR

T4: PDZD2_2, O15018
T4 sequence (O15018 329-429, limits assumed, looked up): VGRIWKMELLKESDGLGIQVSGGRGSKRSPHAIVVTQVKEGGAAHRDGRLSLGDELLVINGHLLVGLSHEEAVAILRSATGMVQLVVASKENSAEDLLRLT

T5: SNTG2, Q9NY99
T5 sequence (Q9NY99 68-166, limits assumed, looked up): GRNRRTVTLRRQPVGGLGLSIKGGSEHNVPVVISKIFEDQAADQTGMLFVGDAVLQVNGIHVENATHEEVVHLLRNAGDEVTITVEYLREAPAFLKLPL

T6: GRIP1_4, Q9Y3R0
T6 sequence (Q9Y3R0 467-571, limits assumed, looked up): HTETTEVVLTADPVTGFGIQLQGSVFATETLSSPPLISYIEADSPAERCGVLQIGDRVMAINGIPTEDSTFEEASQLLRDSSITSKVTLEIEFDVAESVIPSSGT

T7: GRIP1_7, Q9Y3R0
T7 sequence (Q9Y3R0 999-1096, limits assumed, looked up): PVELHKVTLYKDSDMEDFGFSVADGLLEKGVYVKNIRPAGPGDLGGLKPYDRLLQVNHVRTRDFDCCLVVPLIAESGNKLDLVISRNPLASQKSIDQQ

T8: MPP7, Q5T2T1
T8 sequence (Q5T2T1 134-230, limits assumed, looked up): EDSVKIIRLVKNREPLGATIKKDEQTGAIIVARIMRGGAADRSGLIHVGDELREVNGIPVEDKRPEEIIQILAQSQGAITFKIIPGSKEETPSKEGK

T9: NHERF3_4, Q5T2W1
T9 sequence (Q5T2W1 373-468, limits assumed, looked up): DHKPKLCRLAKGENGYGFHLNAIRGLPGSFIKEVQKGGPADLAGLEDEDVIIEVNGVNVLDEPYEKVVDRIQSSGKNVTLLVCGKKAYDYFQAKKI

T10: APBA1_2, Q02410
T10 sequence (Q02410 742-832, limits assumed, looked up): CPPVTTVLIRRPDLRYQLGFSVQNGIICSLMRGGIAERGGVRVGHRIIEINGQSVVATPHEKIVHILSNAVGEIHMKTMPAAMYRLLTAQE

T11: DLG3_3, Q92796
T11 sequence (Q92796 374-475, limits assumed, looked up): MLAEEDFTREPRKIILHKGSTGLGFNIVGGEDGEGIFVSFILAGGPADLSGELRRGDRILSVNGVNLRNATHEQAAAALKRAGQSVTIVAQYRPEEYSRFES

B1: FAT1, Q14517 (peptide)
chain: PLDSQQHTEV
B2: PLEKHH2, Q8IVE3 (peptide)
chain: SRPTKGPTLL
B3: GJD2, Q9UKL4 (peptide)
chain: RTQSSDSAYV

Key:
Assay in all cases: holdup assay
Parameters in all cases: key: below the threshold = too weak to quantify, mostly under pKd 3.1 to 4
Conditions in all cases: plain residues with an end cap or a label only (N-terminal biotin on a linker: ado-ado)
LNX1_3, Q8TBB1 = biological target: LNX1_3, Q8TBB1
Sequence of LNX1_3, Q8TBB1 (Q8TBB1 500-596): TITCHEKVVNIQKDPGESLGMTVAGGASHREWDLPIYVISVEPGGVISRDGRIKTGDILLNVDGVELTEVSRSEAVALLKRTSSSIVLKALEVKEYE

DLG1_2, Q12959 = biological target: DLG1_2, Q12959
Sequence of DLG1_2, Q12959 (Q12959 314-412): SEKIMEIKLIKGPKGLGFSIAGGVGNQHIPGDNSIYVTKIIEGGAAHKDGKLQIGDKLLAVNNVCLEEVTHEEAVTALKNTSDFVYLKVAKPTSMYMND

DLG1_3, Q12959 = biological target: DLG1_3, Q12959
Sequence of DLG1_3, Q12959 (Q12959 457-571): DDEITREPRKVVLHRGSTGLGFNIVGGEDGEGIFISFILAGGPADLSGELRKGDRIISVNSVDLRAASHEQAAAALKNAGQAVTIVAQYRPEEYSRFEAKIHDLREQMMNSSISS

MAGI3_2, Q5TCQ9 = biological target: MAGI3_2, Q5TCQ9
Sequence of MAGI3_2, Q5TCQ9 (Q5TCQ9 398-503): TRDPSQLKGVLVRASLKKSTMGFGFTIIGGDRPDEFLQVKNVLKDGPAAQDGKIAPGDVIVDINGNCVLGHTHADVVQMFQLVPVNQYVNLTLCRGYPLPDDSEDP

DFNB31_2, Q9P202 = biological target: T1, DFNB31_2, Q9P202
HTRA2, O43464 = biological target: HTRA2, O43464
Sequence of HTRA2, O43464 (O43464 355-458): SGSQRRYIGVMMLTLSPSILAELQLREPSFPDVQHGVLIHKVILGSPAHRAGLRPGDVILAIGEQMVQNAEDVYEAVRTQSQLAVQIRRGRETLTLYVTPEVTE

APBA1_1, Q02410 = biological target: T2, APBA1_1, Q02410
SCRIB_2, Q14160 = biological target: SCRIB_2, Q14160
Sequence of SCRIB_2, Q14160 (Q14160 857-960): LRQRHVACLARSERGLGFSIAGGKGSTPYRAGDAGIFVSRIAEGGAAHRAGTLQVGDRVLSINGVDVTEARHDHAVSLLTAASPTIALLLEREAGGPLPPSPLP

RADIL, Q96JH8 = biological target: T3, RADIL, Q96JH8
PDZD2_2, O15018 = biological target: T4, PDZD2_2, O15018
AHNAK1, Q09666 = biological target: AHNAK1, Q09666
Sequence of AHNAK1, Q09666 (Q09666 4-100): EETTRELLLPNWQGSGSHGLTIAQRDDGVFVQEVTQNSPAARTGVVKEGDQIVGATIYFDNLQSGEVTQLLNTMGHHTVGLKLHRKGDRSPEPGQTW

Inadl_3, Q8NI35 = biological target: Inadl_3, Q8NI35
Sequence of Inadl_3, Q8NI35 (Q8NI35 359-469): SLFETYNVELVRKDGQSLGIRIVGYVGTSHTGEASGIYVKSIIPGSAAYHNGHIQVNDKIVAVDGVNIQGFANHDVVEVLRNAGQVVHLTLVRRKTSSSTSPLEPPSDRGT

SNTG2, Q9NY99 = biological target: T5, SNTG2, Q9NY99
GRIP1_4, Q9Y3R0 = biological target: T6, GRIP1_4, Q9Y3R0
Inadl_6, Q8NI35 = biological target: Inadl_6, Q8NI35
Sequence of Inadl_6, Q8NI35 (Q8NI35 1058-1167): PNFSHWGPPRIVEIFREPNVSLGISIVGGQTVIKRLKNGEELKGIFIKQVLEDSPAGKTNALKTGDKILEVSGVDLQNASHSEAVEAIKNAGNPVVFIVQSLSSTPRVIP

FRMPD2_3, Q68DX3 = biological target: FRMPD2_3, Q68DX3
Sequence of FRMPD2_3, Q68DX3 (Q68DX3 1073-1166): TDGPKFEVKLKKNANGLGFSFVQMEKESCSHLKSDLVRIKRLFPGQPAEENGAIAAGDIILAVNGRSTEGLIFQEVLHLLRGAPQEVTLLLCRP

Inadl_5, Q8NI35 = biological target: Inadl_5, Q8NI35
Sequence of Inadl_5, Q8NI35 (Q8NI35 673-780): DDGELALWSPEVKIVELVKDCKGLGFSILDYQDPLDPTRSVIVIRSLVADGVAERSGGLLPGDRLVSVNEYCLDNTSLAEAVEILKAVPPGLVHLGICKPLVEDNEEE

SNX27, Q96L92 = biological target: SNX27, Q96L92
GRIP1_7, Q9Y3R0 = biological target: T7, GRIP1_7, Q9Y3R0
LNX1_2, Q8TBB1 = biological target: LNX1_2, Q8TBB1
Sequence of LNX1_2, Q8TBB1 (Q8TBB1 371-470): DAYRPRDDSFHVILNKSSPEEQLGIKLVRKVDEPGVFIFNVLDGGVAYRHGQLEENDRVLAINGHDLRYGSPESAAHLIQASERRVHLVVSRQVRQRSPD

Inadl_2, Q8NI35 = biological target: Inadl_2, Q8NI35
Sequence of Inadl_2, Q8NI35 (Q8NI35 238-335): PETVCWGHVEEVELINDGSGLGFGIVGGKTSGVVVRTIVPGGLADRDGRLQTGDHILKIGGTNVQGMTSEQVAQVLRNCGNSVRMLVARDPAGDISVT

MPP7, Q5T2T1 = biological target: T8, MPP7, Q5T2T1
TJP1_2, Q07157 = biological target: TJP1_2, Q07157
Sequence of TJP1_2, Q07157 (Q07157 181-274): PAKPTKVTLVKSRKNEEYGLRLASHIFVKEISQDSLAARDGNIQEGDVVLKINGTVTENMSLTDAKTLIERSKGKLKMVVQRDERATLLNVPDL

NHERF3_4, Q5T2W1 = biological target: T9, NHERF3_4, Q5T2W1
APBA1_2, Q02410 = biological target: T10, APBA1_2, Q02410
TJP1_3, Q07157 = biological target: TJP1_3, Q07157
Sequence of TJP1_3, Q07157 (Q07157 416-512): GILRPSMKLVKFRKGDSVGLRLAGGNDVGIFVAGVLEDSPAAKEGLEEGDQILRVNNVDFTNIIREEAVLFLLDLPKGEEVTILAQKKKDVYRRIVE

DLG3_3, Q92796 = biological target: T11, DLG3_3, Q92796

Binder | pKd (LNX1_3, Q8TBB1) | pKd (DLG1_2, Q12959) | pKd (DLG1_3, Q12959) | pKd (MAGI3_2, Q5TCQ9) | pKd (DFNB31_2, Q9P202) | pKd (HTRA2, O43464) | pKd (APBA1_1, Q02410) | pKd (SCRIB_2, Q14160) | pKd (RADIL, Q96JH8) | pKd (PDZD2_2, O15018) | pKd (AHNAK1, Q09666) | pKd (Inadl_3, Q8NI35) | pKd (SNTG2, Q9NY99) | pKd (GRIP1_4, Q9Y3R0) | pKd (Inadl_6, Q8NI35) | pKd (FRMPD2_3, Q68DX3) | pKd (Inadl_5, Q8NI35) | pKd (SNX27, Q96L92) | pKd (GRIP1_7, Q9Y3R0) | pKd (LNX1_2, Q8TBB1) | further results
B1 | below the threshold | 4.99 | below the threshold | 3.71 | below the threshold | below the threshold | below the threshold | 4.21 | 3.89 | 4.79 | below the threshold | below the threshold | 3.67 | below the threshold | below the threshold | below the threshold | below the threshold | 4.7 | below the threshold | below the threshold | pKd (Inadl_2, Q8NI35): below the threshold; pKd (MPP7, Q5T2T1): below the threshold; pKd (TJP1_2, Q07157): 3.62; pKd (NHERF3_4, Q5T2W1): below the threshold; pKd (APBA1_2, Q02410): 3.7; pKd (TJP1_3, Q07157): below the threshold; pKd (DLG3_3, Q92796): below the threshold
B2 | below the threshold | 3.82 | below the threshold | 4.4 | below the threshold | below the threshold | below the threshold | below the threshold | 3.94 | 3.87 | below the threshold | below the threshold | below the threshold | below the threshold | below the threshold | below the threshold | below the threshold | 3.76 | below the threshold | below the threshold | pKd (Inadl_2, Q8NI35): below the threshold; pKd (MPP7, Q5T2T1): below the threshold; pKd (TJP1_2, Q07157): below the threshold; pKd (NHERF3_4, Q5T2W1): 3.65; pKd (APBA1_2, Q02410): 4.25; pKd (TJP1_3, Q07157): below the threshold; pKd (DLG3_3, Q92796): below the threshold
B3 | 3.47 | 3.88 | below the threshold | below the threshold | below the threshold | below the threshold | below the threshold | below the threshold | 4.43 | 5.15 | below the threshold | below the threshold | below the threshold | below the threshold | below the threshold | 3.71 | 3.5 | 4.13 | below the threshold | 4.11 | pKd (Inadl_2, Q8NI35): below the threshold; pKd (MPP7, Q5T2T1): below the threshold; pKd (TJP1_2, Q07157): below the threshold; pKd (NHERF3_4, Q5T2W1): 3.54; pKd (APBA1_2, Q02410): 4.09; pKd (TJP1_3, Q07157): below the threshold; pKd (DLG3_3, Q92796): below the threshold
